{
  "source": "paper doi:10.1101/2020.04.05.026310",
  "about": "(bioRxiv, 2020)",
  "proteins": {"B1": {"name": "mouse pyridoxal kinase (mPDXK), wild type (enzyme, UniProt Q8K183 1-312, looked up)", "chain": "MEGECRVLSIQSHVVRGYVGNRAAMFPLQVLGFEVDAVNSVQFSNHTGYAHWKGQVLKSQELHELYEGLKVNDVNKYDYVLTGYTRDKSFLAMVVDIVRELKQQNSRLVYVCDPVMGDKWNGEGSMYVPQDLLPVYRDKVVPVADIITPNQFEAELLSGRKIHSQEEAFEVMDMLHCMGPDTVVITSSDLPSSQGSDYLIALGSQRMRKPDGSTVTQRIRMEMRKVEAVFVGTGDLFAAMLLAWTHKHPDNLKVACEKTVSAMQHVLQRTIRCAKAEAGEGQKPSPAQLELRMVQSKRDIEDPEIVVQATVL"}, "B2": {"name": "mouse pyridoxal kinase (mPDXK) R86W (enzyme, UniProt Q8K183 1-312, looked up)", "chain": "B1 chain with R86W"}, "B3": {"name": "mouse pyridoxal kinase (mPDXK) V41W/F43R double mutant (enzyme, UniProt Q8K183 1-312, looked up)", "chain": "B1 chain with V41W, F43R"}, "B4": {"name": "mouse pyridoxal kinase (mPDXK) F43R (enzyme, UniProt Q8K183 1-312, looked up)", "chain": "B1 chain with F43R"}, "B5": {"name": "mouse pyridoxal kinase (mPDXK) V41W (enzyme, UniProt Q8K183 1-312, looked up)", "chain": "B1 chain with V41W"}},
  "note": "Substitutions are numbered along the chain they refer to. In names and notes the source's numbering stands.",
  "data": [
    {"molecular_target": "the molecule itself", "assay": "SEC-MALS", "values": [
      {"protein": "B1", "stoichiometry N": 2},
      {"protein": "B2", "stoichiometry N": 2},
      {"protein": "B3", "stoichiometry N": 2},
      {"protein": "B4", "stoichiometry N": 2},
      {"protein": "B5", "stoichiometry N": 2}
    ]}
  ]
}
